The target in assay [1] is 3.3 antibody (an anti-PEG antibody, IgG type). Nature of the assay: ELISA, biotin-3.3Ab 0.11 µg/mL on plate coated with poly-protein G, streptavidin-HRP, OD405. In general terms: ELISA stands for enzyme-linked immunosorbent assay.
Assay [2] has the same target. Nature of the assay: ELISA, biotin-3.3Ab 1 µg/mL on plate coated with poly-protein G, streptavidin-HRP, OD405.
The target is the same in assay [3]. Nature of the assay: ELISA, biotin-3.3Ab 0.0123 µg/mL on plate coated with poly-protein G, streptavidin-HRP, OD405.
For assay [4] the target is unchanged. In words: ELISA, biotin-3.3Ab 0.33 µg/mL on plate coated with poly-protein G, streptavidin-HRP, OD405.
For assay [5] the target is unchanged. Nature of the assay: ELISA, biotin-3.3Ab 0.0371 µg/mL on plate coated with poly-protein G, streptavidin-HRP, OD405.

B1: poly-protein G (soluble; HA, eight repeats of C2 domain of protein G with linkers, six histidines) (protein, not shown: small tags and cut ends)
chain: TYKLVINGKTLKGETTTEAVDAATAEKVFKQYANDNGVDGEWTYDDATKTFTVTEGGGGSGGGGSVETYKLVINGKTLKGETTTEAVDAATAEKVFKQYANDNGVDGEWTYDDATKTFTVTEGGGGSGGGGSVETYKLVINGKTLKGETTTEAVDAATAEKVFKQYANDNGVDGEWTYDDATKTFTVTEGGGGSGGGGSVETYKLVINGKTLKGETTTEAVDAATAEKVFKQYANDNGVDGEWTYDDATKTFTVTEGGGGSGGGGSVETYKLVINGKTLKGETTTEAVDAATAEKVFKQYANDNGVDGEWTYDDATKTFTVTEGGGGSGGGGSVETYKLVINGKTLKGETTTEAVDAATAEKVFKQYANDNGVDGEWTYDDATKTFTVTEGGGGSGGGGSVETYKLVINGKTLKGETTTEAVDAATAEKVFKQYANDNGVDGEWTYDDATKTFTVTEGGGGSGGGGSVETYKLVINGKTLKGETTTEAVDAATAEKVFKQYANDNGVDGEWTYDDATKTFTVTEGGGGSGGGGSVHHHHHH
For the molecule B1, the fold antibody amount loaded vs commercial protein G-based plate in assay [1] amounted to 4 times; in assay [2], 1.15 times; in assay [3], 7.8 times; in assay [4] it was 1.3 times; in assay [5], 5.8 times. For the same molecule, the fold antibody amount loaded vs traditional polystyrene-based plate in assay [1] turned out to be 10 times; in assay [2], 1.3 times; in assay [3], 14 times; in assay [4], 2.2 times; in assay [5], 20 times.
